# In patent US10688131B2, “Peptides and scaffolds for use in immunotherapy against head and neck squamous cell carcinoma and other cancers” (Immatics Biotechnologies GmbH, priority 2016, dated 2020):
# Molecular target: HLA-A*02:01 (Homo sapiens, UniProt P04439, D140Y/D185E/D98H/E176V/E277Q/G131W/G231S/I119V/I121R/I166T/I218V/L300P/L318F/N151K/N90K/P208A/P217A/Q86G/Q94H/R138H/R169H/T345S)
# Experiment: MHC binding assay: UV-ligand exchange with β2m ELISA
# Settings: binding of HLA-class I restricted peptides to HLA-A*02:01
# Text: Candidate peptides for T cell based therapies according to the present invention were further tested for their MHC binding capacity (affinity). The individual peptide-MHC complexes were produced by UV-ligand exchange, where a UV-sensitive peptide is cleaved upon UV-irradiation, and exchanged with the peptide of interest as analyzed. Only peptide candidates that can effectively bind and stabilize the peptide-receptive MHC molecules prevent dissociation of the MHC complexes. To determine the yield of the exchange reaction, an ELISA was performed based on the detection of the light chain (β2m) of stabilized MHC complexes. The assay was performed as generally described in Rodenko et al. (Rodenko et al., 2006).
# 96 well MAXISorp plates (NUNC) were coated over night with 2 ug/ml streptavidin in PBS at room temperature, washed 4× and blocked for 1 h at 37° C. in 2% BSA containing blocking buffer. Refolded HLA-A*02:01/MLA-001 monomers served as standards, covering the range of 15-500 ng/ml. Peptide-MHC monomers of the UV-exchange reaction were diluted 100-fold in blocking buffer. Samples were incubated for 1 h at 37° C., washed four times, incubated with 2 ug/ml HRP conjugated anti-β2m for 1 h at 37° C., washed again and detected with TMB solution that is stopped with […]. Absorption was measured at 450 nm. Candidate peptides that show a high exchange yield (preferably higher than 50%, most preferred higher than 75%) are generally preferred for a generation and production of antibodies or fragments thereof, and/or T cell receptors or fragments thereof, as they show sufficient avidity to the MHC molecules and prevent dissociation of the MHC complexes.
row,Substance,"Peptide exchange (MHC class I binding score, peptide exchange yield)"
1,2 (PVCPPGGIQEV; listed as Homo sapiens) [compound 2],+++ (>50 = +++)
2,4 (ILDINDNPPV; listed as Homo sapiens) [compound 4],+++ (>50 = +++)
3,5 (VCPPGGIQEV; listed as Homo sapiens) [compound 5],+++ (>50 = +++)
4,6 (ALYDAELSQM; listed as Homo sapiens) [compound 6],+++ (>50 = +++)
5,7 (ALEEANADLEV; listed as Homo sapiens) [compound 7],+++ (>50 = +++)
6,9 (STASAITPSV; listed as Homo sapiens) [compound 9],++ (>20% = ++)
7,14 (RIMEGIPTV; listed as Homo sapiens) [compound 14],++++ (>75% = ++++)
8,15 (SMLNNIINL; listed as Homo sapiens) [compound 15],+++ (>50 = +++)
9,21 (FLHEPFSSV; listed as Homo sapiens) [compound 21],++++ (>75% = ++++)
10,22 (KLPEPCPSTV; listed as Homo sapiens) [compound 22],+++ (>50 = +++)
11,23 (SLPESGLLSV; listed as Homo sapiens) [compound 23],+++ (>50 = +++)
12,24 (LLIAINPQV; listed as Homo sapiens) [compound 24],++++ (>75% = ++++)
13,25 (SLCPPGGIQEV; listed as Homo sapiens) [compound 25],++++ (>75% = ++++)
14,27 (YLAEPQWAV; listed as Homo sapiens) [compound 27],++++ (>75% = ++++)
15,31 (HLATVKLLV; listed as Homo sapiens) [compound 31],++++ (>75% = ++++)
16,32 (IQDAEGAIHEV; listed as Homo sapiens) [compound 32],++++ (>75% = ++++)
17,33 (AIYEGVGWNV; listed as Homo sapiens) [compound 33],++++ (>75% = ++++)
18,34 (ALDTFSVQV; listed as Homo sapiens) [compound 34],++++ (>75% = ++++)
19,35 (ALVGDVILTV; listed as Homo sapiens) [compound 35],++++ (>75% = ++++)
20,36 (GLWSSIFSL; listed as Homo sapiens) [compound 36],++++ (>75% = ++++)
21,37 (ILLEDVFQL; listed as Homo sapiens) [compound 37],++++ (>75% = ++++)

row,Substance,"Peptide exchange (MHC class I binding score, peptide exchange yield)"
1,38 (KLLPGVQYV; listed as Homo sapiens) [compound 38],++++ (>75% = ++++)
2,39 (LLPEDDTRDNV; listed as Homo sapiens) [compound 39],+++ (>50 = +++)
3,40 (LLTPLNLQI; listed as Homo sapiens) [compound 40],+++ (>50 = +++)
4,41 (RLNGEGVGQVNISV; listed as Homo sapiens) [compound 41],++ (>20% = ++)
5,42 (ALYTSGHLL; listed as Homo sapiens) [compound 42],++++ (>75% = ++++)
6,43 (AVLGGKLYV; listed as Homo sapiens) [compound 43],++++ (>75% = ++++)
7,44 (GLGDDSFPI; listed as Homo sapiens) [compound 44],++++ (>75% = ++++)
8,45 (GLIEWLENTV; listed as Homo sapiens) [compound 45],++++ (>75% = ++++)
9,46 (GLISSIEAQL; listed as Homo sapiens) [compound 46],++++ (>75% = ++++)
10,47 (QLLEGELETL; listed as Homo sapiens) [compound 47],+++ (>50 = +++)
11,48 (YLLDYPNNL; listed as Homo sapiens) [compound 48],+++ (>50 = +++)
12,49 (YLWEAHTNI; listed as Homo sapiens) [compound 49],++++ (>75% = ++++)
13,50 (ALSNVVHKV; listed as Homo sapiens) [compound 50],++++ (>75% = ++++)
14,51 (FLIPSIIFA; listed as Homo sapiens) [compound 51],++++ (>75% = ++++)
15,52 (LLFTGLVSGV; listed as Homo sapiens) [compound 52],+++ (>50 = +++)
16,53 (RLVEVGGDVQL; listed as Homo sapiens) [compound 53],++++ (>75% = ++++)
17,54 (RLSGEGVGPV; listed as Homo sapiens) [compound 54],+++ (>50 = +++)
18,55 (VLNVGVAEV; listed as Homo sapiens) [compound 55],+++ (>50 = +++)
19,56 (FLQLETEQV; listed as Homo sapiens) [compound 56],++++ (>75% = ++++)
20,57 (AILGFALSEA; listed as Homo sapiens) [compound 57],++++ (>75% = ++++)
21,58 (SLSDIQPCL; listed as Homo sapiens) [compound 58],+++ (>50 = +++)

row,Substance,"Peptide exchange (MHC class I binding score, peptide exchange yield)"
1,59 (YLQNEVFGL; listed as Homo sapiens) [compound 59],+++ (>50 = +++)
2,60 (SLGNFKDDLL; listed as Homo sapiens) [compound 60],+++ (>50 = +++)
3,61 (FVAGYIAGV; listed as Homo sapiens) [compound 61],++++ (>75% = ++++)
4,62 (ILSSACYTV; listed as Homo sapiens) [compound 62],++++ (>75% = ++++)
5,63 (ALMDEINFMKM; listed as Homo sapiens) [compound 63],++++ (>75% = ++++)
6,64 (KILESLFVSL; listed as Homo sapiens) [compound 64],+++ (>50 = +++)
7,65 (ALWGFFPVLL; listed as Homo sapiens) [compound 65],++++ (>75% = ++++)
8,66 (TLLSEIAEL; listed as Homo sapiens) [compound 66],++++ (>75% = ++++)
9,67 (AQLNLIWQL; listed as Homo sapiens) [compound 67],++++ (>75% = ++++)
10,68 (KILEMDDPRA; listed as Homo sapiens) [compound 68],++ (>20% = ++)
11,69 (YVMESMTYL; listed as Homo sapiens) [compound 69],++++ (>75% = ++++)
12,70 (FLFPAFLTA; listed as Homo sapiens) [compound 70],++++ (>75% = ++++)
13,71 (SLFPYVVLI; listed as Homo sapiens) [compound 71],++++ (>75% = ++++)
14,72 (SLDGNPLAV; listed as Homo sapiens) [compound 72],++++ (>75% = ++++)
15,73 (YIDPYKLLPL; listed as Homo sapiens) [compound 73],+++ (>50 = +++)
16,74 (SLTSFLISL; listed as Homo sapiens) [compound 74],+++ (>50 = +++)
17,75 (ALASAPTSV; listed as Homo sapiens) [compound 75],++++ (>75% = ++++)
18,76 (ILFDEVLTFA; listed as Homo sapiens) [compound 76],++++ (>75% = ++++)
19,77 (SLRAFLMPI; listed as Homo sapiens) [compound 77],++ (>20% = ++)
20,78 (VLYGDVEEL; listed as Homo sapiens) [compound 78],+++ (>50 = +++)
